Results published in paper PMC7094522.

Molecular target: Fluorogenic peptide Dabcyl-…-Edans, EV71 polyprotein autoprocessing site between 3B and 3C (human enterovirus 71)

With EV71 3C protease mutant H133G (enzyme) the Km of cleavage of the fluorogenic 3B-3C peptide (protease assay, 4 μM protease) was 25.9 µM.
